The values below come from publication PMC3669286.

This experiment deals with Smad3 (UniProt P84022). In words: co-immunoprecipitation, blot for 14-3-3σ. The note with it: reference: wild type; sites S69,S74.

In the case of 14-3-3σ (from UniProt P31947) S69/74A, the “binding against the reference” value was “lost”.
